These are literature values, as cited in patent US20250388691A1, “METHODS FOR TREATING LYMPHOMA” (Xencor, Inc., priority 2022, published 2025).

For series [1], the system named is R/R DLBCL. Conditions: ongoing Phase 1 study XmAb13676-01, NCT02924402.
[2] abbreviates: plamotamab, Investigator's Brochure, 2021.

For the substance “plamotamab: humanized bsAb that binds both CD3 and the tumor antigen CD20; Fab-scFv-Fc format”, the “responses in subjects with R/R DLBCL” value in series [1] is given as “durable responses”. Also, the “TLS, R/R NHL subjects” value (Phase 1 monotherapy, 2 of the 80 R/R NHL subjects) is recorded as 2.5%. Besides, the “any-grade TLS, subjects” value (Phase 1 monotherapy, CD20-expressing hematologic malignancies, 4 of 96 subjects) was 4.2%. Further, the CRS result (XmAb13676-01 study, especially with the Cycle 1 Day 1 dose) is on record as “frequently observed”. Further, the “serious or fatal events of TLS” value (plamotamab monotherapy in R/R DLBCL) is listed as “no serious or fatal events of TLS”. Also, under setting [2], the “Adverse events of neutropenia (all grades)” value is 20.8% and the “Adverse events of thrombocytopenia (all grades)” value is on record as 24.0%.
